Data as given in PMC8861134.

Key:
[1] = molecular target: Glucose-6-phosphate dehydrogenase K403Q (human) (UniProt P11413); assay: SEC; analytical SEC, Superdex 75 10/300 GL, 0.4 ml/min; 500 nM G6PD incubated 30 min at 23 °C in 80 mM sodium phosphate pH 8.0, with or without 10 μM NADP+; percentages in monomer equivalents; step: monomers to dimer
[2] = molecular target: Glucose-6-phosphate dehydrogenase E347A, tetramer-impaired synthetic mutant (human) (UniProt P11413); assay: native gel or EMSA; partial native PAGE (P-Native PAGE): 850 nM protein in 50 mM Tris pH 7.4, 150 mM NaCl, 23 °C, 30 min; sample buffer without SDS and BME, not boiled, run on SDS-PAGE, Western blot, quantified with Fiji; step: dimer to monomers

Substance | percent dimer [1] [%] | percent in monomeric form [2] [%]
Glucose-6-phosphate dehydrogenase K403Q (from UniProt P11413 1-515) (enzyme) | 74 | –
Glucose-6-phosphate dehydrogenase E347A, tetramer-impaired synthetic mutant (from UniProt P11413 1-515) (enzyme) | – | 80
